± gives the uncertainty stated by the source.
B1: Tumor protein 63, residues 545 to 610; numbered along this chain, Q9H3D4 (parent)
chain: TDCSIVSFLARLGCSSCLDYFTTQGLTTIYQIEHYSMDDLASLKIPEQFRHAIWKGILDHRQLHEF

Variants of: B1
Assay: abundance fitness (aPCA) (normalised: wild type 0, dead -1); higher = more abundant; growth selection in yeast, the domain comes from the species named
Details: Homo sapiens

TDCSIVSFLARLGCSSCLDYFTTQGLTTIYQICHYSMDDLASLKIPEQFRHAIWKGILDHRQLHEF [E33C] and TDCSIVSFLARLGCSSCLDYFTTQGLTTIYQIIHYSMDDLASLKIPEQFRHAIWKGILDHRQLHEF [E33I] are within error of each other in abundance fitness: -0.05 ± 0.036 for the first, -0.139 ± 0.069 for the second.

TDCSIVSFLARLGCSSCLDYFTTQGLTTIYQIHHYSMDDLASLKIPEQFRHAIWKGILDHRQLHEF [E33H] and TDFSIVSFLARLGCSSCLDYFTTQGLTTIYQIEHYSMDDLASLKIPEQFRHAIWKGILDHRQLHEF [C3F] are within error of each other in abundance fitness: -0.039 ± 0.044 for the first, -0.018 ± 0.063 for the second.

Going from TDDSIVSFLARLGCSSCLDYFTTQGLTTIYQIEHYSMDDLASLKIPEQFRHAIWKGILDHRQLHEF [C3D] to TDCSGVSFLARLGCSSCLDYFTTQGLTTIYQIEHYSMDDLASLKIPEQFRHAIWKGILDHRQLHEF [I5G], the abundance fitness falls from -0.043 ± 0.029 to -0.878 ± 0.052.

TDCSIVSFLARLGCSSCLDYFTTAGLTTIYQIEHYSMDDLASLKIPEQFRHAIWKGILDHRQLHEF [Q24A] and TDCSIVSFLARLGCSSCLDYFTTIGLTTIYQIEHYSMDDLASLKIPEQFRHAIWKGILDHRQLHEF [Q24I] are within error of each other in abundance fitness: -0.025 ± 0.036 for the first, -0.073 ± 0.06 for the second.

Going from TDCSIVSFLARLGCSSCLDYFTTQVLTTIYQIEHYSMDDLASLKIPEQFRHAIWKGILDHRQLHEF [G25V] to TDCSIVSFLARLGCSSQLDYFTTQGLTTIYQIEHYSMDDLASLKIPEQFRHAIWKGILDHRQLHEF [C17Q], the abundance fitness rises from -0.866 ± 0.079 to -0.147 ± 0.035.

Going from TDCSIVSFLARLGCSSSLDYFTTQGLTTIYQIEHYSMDDLASLKIPEQFRHAIWKGILDHRQLHEF [C17S] to TDCSIVSFLARLGCSSMLDYFTTQGLTTIYQIEHYSMDDLASLKIPEQFRHAIWKGILDHRQLHEF [C17M], the abundance fitness rises from -0.164 ± 0.018 to -0.025 ± 0.033.

TDCSIVSFLARLGCSSCLDYFTTQGLTTIYQIEHYSMDDLASLKIPEQFRHAIWKGILDHRQTHEF [L63T] and TDCSIVSFLARLGCSSCLDYFTTQGLTTIYQIEHYSMDDLASLKIPEQFRHAIWKGILDHRQPHEF [L63P] are within error of each other in abundance fitness: -0.006 ± 0.03 for the first, -0.008 ± 0.043 for the second.

First: TDCSIVSFLARLGCSSCLDYFTTQGLTTIYFIEHYSMDDLASLKIPEQFRHAIWKGILDHRQLHEF [Q31F]
Second: TDCSIVSFLARLGCSSCLDYHTTQGLTTIYQIEHYSMDDLASLKIPEQFRHAIWKGILDHRQLHEF [F21H]
The abundance fitness of the first is higher: -0.695 ± 0.031 for the first, -0.975 ± 0.18 for the second.

TDCSIVSFLARLGCSSCLDYNTTQGLTTIYQIEHYSMDDLASLKIPEQFRHAIWKGILDHRQLHEF [F21N] and TDCSIVSFLARLGCSSCLDYWTTQGLTTIYQIEHYSMDDLASLKIPEQFRHAIWKGILDHRQLHEF [F21W] are within error of each other in abundance fitness: -0.962 ± 0.1 for the first, -1.04 ± 0.11 for the second.

TDCHIVSFLARLGCSSCLDYFTTQGLTTIYQIEHYSMDDLASLKIPEQFRHAIWKGILDHRQLHEF [S4H] and TDCQIVSFLARLGCSSCLDYFTTQGLTTIYQIEHYSMDDLASLKIPEQFRHAIWKGILDHRQLHEF [S4Q] are within error of each other in abundance fitness: -0.114 ± 0.029 for the first, -0.078 ± 0.03 for the second.

TDCSIVSFLARLGCSSCLDYFTTQGLTTIYQIEHYSMDDLASLKIPEQFRHAIWKGILDHRQLHED [F66D] and TDCSIVSFLARLGCSSCLDYFTTQGLTTIYQIEHYSMDDLASLKIPEQFKHAIWKGILDHRQLHEF [R50K] are within error of each other in abundance fitness: -0.119 ± 0.46 for the first, -0.067 ± 0.048 for the second.

TDCSIVSFLARLGCSSCLDYFTTQGLTTIYQIEHYSMDDLASLKIPEQFRHAIWKGILDARQLHEF [H60A] and TDCSIVSFLARLGCSSCLDYFTTQGLTTIYQIEHYSMDDLASLKIPEQFRHAIWKGILDGRQLHEF [H60G] are within error of each other in abundance fitness: -0.019 ± 0.037 for the first, -0.092 ± 0.044 for the second.

Going from TDCSIVSFLARLGCSSCLDYFTTQGLTTIYQIEHYSMDDLASLKTPEQFRHAIWKGILDHRQLHEF [I45T] to TDCSIVSFLARLGCSSCLDYFTTQGLTTIYQIEHYSMDDLASLKYPEQFRHAIWKGILDHRQLHEF [I45Y], the abundance fitness falls from -0.588 ± 0.041 to -0.821 ± 0.09.

TDCSIVSFLARLGCSSCLDYFTTQGLTTIYQIEHYSMDDLASLKIPEQFRHAIWKGIKDHRQLHEF [L58K] and TDCSIVSFLARLGCSSCLDYFTTQGLTTIYQIEHYSMDDLASLKIPEQFRHAIWKGIYDHRQLHEF [L58Y] are within error of each other in abundance fitness: -0.001 ± 0.043 for the first, 0.026 ± 0.045 for the second.

Going from IDCSIVSFLARLGCSSCLDYFTTQGLTTIYQIEHYSMDDLASLKIPEQFRHAIWKGILDHRQLHEF [T1I] to KDCSIVSFLARLGCSSCLDYFTTQGLTTIYQIEHYSMDDLASLKIPEQFRHAIWKGILDHRQLHEF [T1K], the abundance fitness falls from -0.006 ± 0.041 to -0.122 ± 0.054.

YDCSIVSFLARLGCSSCLDYFTTQGLTTIYQIEHYSMDDLASLKIPEQFRHAIWKGILDHRQLHEF [T1Y] and EDCSIVSFLARLGCSSCLDYFTTQGLTTIYQIEHYSMDDLASLKIPEQFRHAIWKGILDHRQLHEF [T1E] are within error of each other in abundance fitness: -0.074 ± 0.046 for the first, -0.021 ± 0.054 for the second.

First: TDCSIVSFLARLGCSSCLDYFTTQGLTTIYQIEHTSMDDLASLKIPEQFRHAIWKGILDHRQLHEF [Y35T]
Second: TDCSIVSFLARLGCSSCLDYFTTQGLTTIYQIEHMSMDDLASLKIPEQFRHAIWKGILDHRQLHEF [Y35M]
The abundance fitness of the first is lower: -0.318 ± 0.028 for the first, 0.03 ± 0.022 for the second.

First: TDCSIVSFLARLGCSSCLDYFTTQGQTTIYQIEHYSMDDLASLKIPEQFRHAIWKGILDHRQLHEF [L26Q]
Second: TDCSIVSFLARLGCSSCLDYFTTQGLTTIYQIEHYSMDDLASLKIPEQFRHAIWKGILFHRQLHEF [D59F]
The abundance fitness of the first is lower: -0.345 ± 0.041 for the first, -0.09 ± 0.031 for the second.

Compared with TDCSIVSFLARLGCSSCLDYFTTQGLTTIYQIEHYSMDDLASKKIPEQFRHAIWKGILDHRQLHEF [L43K], TDCSIVSFLARLGCSSCLDYFTTQGLWTIYQIEHYSMDDLASLKIPEQFRHAIWKGILDHRQLHEF [T27W] is higher in abundance fitness: -0.283 ± 0.03 for the first, -0.135 ± 0.03 for the second.

TDCSIVSFLARLGCSSCLDYFTTQGLTTIYQIEEYSMDDLASLKIPEQFRHAIWKGILDHRQLHEF [H34E] and TDCSIVSFLARLGCSSCLDYFTTQGLTTIYQIEHYSMDDLASLKIPEQFRHAIWKGILDHRLLHEF [Q62L] are within error of each other in abundance fitness: -0.007 ± 0.026 for the first, -0.039 ± 0.027 for the second.

Variant TDCSIVSFRARLGCSSCLDYFTTQGLTTIYQIEHYSMDDLASLKIPEQFRHAIWKGILDHRQLHEF [L9R] has an abundance fitness of -0.83 ± 0.039.

Reference: the Human Domainome abundance scans (Beltran et al. 2025)
